Source: PMC2114792

Tests used:
[1] = molecular target: rat hexabrachion (rat (endogenous in normal rat kidney cells)); experiment: rotary shadowing electron microscopy
[2] = molecular target: mouse hexabrachion (mouse (endogenous in 3T3 cells)) (UniProt Q80YX1); experiment: rotary shadowing electron microscopy

Substance	stoichiometry N [1]	stoichiometry N [2]
rat hexabrachion	6	
mouse hexabrachion, Q80YX1 23-2110		6
